Publication PMC9482650, “Quantitative fragmentomics allow affinity mapping of interactomes” (Nature Communications, 2022)

T1: ARHGAP21, Q5T5U3
T1 sequence (Q5T5U3 45-169, limits assumed, looked up): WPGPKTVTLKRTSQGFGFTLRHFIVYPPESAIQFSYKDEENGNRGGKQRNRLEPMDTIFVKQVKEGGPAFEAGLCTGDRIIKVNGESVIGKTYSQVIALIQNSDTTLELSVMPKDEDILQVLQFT

T2: RADIL, Q96JH8
T2 sequence (Q96JH8 971-1071, limits assumed, looked up): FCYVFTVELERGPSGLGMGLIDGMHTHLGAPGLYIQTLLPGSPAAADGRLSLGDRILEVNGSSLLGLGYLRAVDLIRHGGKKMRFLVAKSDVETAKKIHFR

T3: PDZRN3_1, Q9UPQ7
T3 sequence (Q9UPQ7 244-349, limits assumed, looked up): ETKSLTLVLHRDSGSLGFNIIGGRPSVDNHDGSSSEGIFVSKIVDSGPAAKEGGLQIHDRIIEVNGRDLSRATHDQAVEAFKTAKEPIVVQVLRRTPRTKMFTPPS

T4: PARD3B_1, Q8TEW8
T4 sequence (Q8TEW8 196-299, limits assumed, looked up): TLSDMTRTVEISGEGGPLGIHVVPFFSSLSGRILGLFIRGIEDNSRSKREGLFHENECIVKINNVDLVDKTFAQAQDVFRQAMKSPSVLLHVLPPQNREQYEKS

T5: LIN7A, O14910
T5 sequence (O14910 103-200, limits assumed, looked up): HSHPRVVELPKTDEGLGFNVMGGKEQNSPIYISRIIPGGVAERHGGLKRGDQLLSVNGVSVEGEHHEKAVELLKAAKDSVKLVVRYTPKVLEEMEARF

T6: MPP2, Q14168
T6 sequence (Q14168 180-250, limits assumed, looked up): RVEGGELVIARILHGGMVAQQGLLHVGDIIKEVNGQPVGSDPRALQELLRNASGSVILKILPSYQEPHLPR

T7: CARD11, Q9BXL7
T7 sequence (Q9BXL7 662-765, limits assumed, looked up): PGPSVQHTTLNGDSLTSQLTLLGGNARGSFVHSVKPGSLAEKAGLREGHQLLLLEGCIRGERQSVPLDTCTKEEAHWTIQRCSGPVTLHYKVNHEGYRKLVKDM

T8: LNX2_3, Q8N448
T8 sequence (Q8N448 463-564, limits assumed, looked up): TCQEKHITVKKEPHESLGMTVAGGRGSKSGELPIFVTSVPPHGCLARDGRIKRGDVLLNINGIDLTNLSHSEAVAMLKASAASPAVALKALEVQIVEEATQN

T9: FRMPD1, Q5SYB0
T9 sequence (Q5SYB0 52-145, limits assumed, looked up): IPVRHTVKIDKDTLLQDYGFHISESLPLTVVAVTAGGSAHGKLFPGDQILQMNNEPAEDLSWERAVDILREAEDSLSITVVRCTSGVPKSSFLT


Legend:
Test in all cases: holdup assay
Design in all cases: key: below the threshold = too weak to quantify, mostly under pKd 3.1 to 4
Details in all cases: plain residues with an end cap or a label only (N-terminal biotin on a linker: ado-ado)
ARHGEF12, Q9NZN5-2 = biological target: ARHGEF12, Q9NZN5-2
ARHGAP21, Q5T5U3 = biological target: T1, ARHGAP21, Q5T5U3
RADIL, Q96JH8 = biological target: T2, RADIL, Q96JH8
MAGI2_5, Q86UL8 = biological target: MAGI2_5, Q86UL8
DLG4_1, P78352 = biological target: DLG4_1, P78352
PDZRN3_1, Q9UPQ7 = biological target: T3, PDZRN3_1, Q9UPQ7
PARD3B_1, Q8TEW8 = biological target: T4, PARD3B_1, Q8TEW8
PTPN3, P26045 = biological target: PTPN3, P26045
MAGI1_1, Q96QZ7 = biological target: MAGI1_1, Q96QZ7
GRIP2_6, Q9C0E4 = biological target: GRIP2_6, Q9C0E4
LIMK2, P53671 = biological target: LIMK2, P53671
Inadl_10, Q8NI35 = biological target: Inadl_10, Q8NI35
MAST2, Q6P0Q8 = biological target: MAST2, Q6P0Q8
Inadl_3, Q8NI35 = biological target: Inadl_3, Q8NI35
DLG2_2, Q15700 = biological target: DLG2_2, Q15700
LDB3, O75112 = biological target: LDB3, O75112
SCRIB_1, Q14160 = biological target: SCRIB_1, Q14160
FRMPD3, Q5JV73 = biological target: FRMPD3, Q5JV73
Inadl_8, Q8NI35 = biological target: Inadl_8, Q8NI35
NHERF4_1, Q86UT5-2 = biological target: NHERF4_1, Q86UT5-2
GIPC2, Q8TF65 = biological target: GIPC2, Q8TF65
SNX27, Q96L92 = biological target: SNX27, Q96L92
GRASP, Q7Z6J2 = biological target: GRASP, Q7Z6J2
LIN7A, O14910 = biological target: T5, LIN7A, O14910
MPP2, Q14168 = biological target: T6, MPP2, Q14168
CARD11, Q9BXL7 = biological target: T7, CARD11, Q9BXL7
MAGI2_6, Q86UL8 = biological target: MAGI2_6, Q86UL8
LNX2_3, Q8N448 = biological target: T8, LNX2_3, Q8N448
FRMPD1, Q5SYB0 = biological target: T9, FRMPD1, Q5SYB0

Chain of LIMK2, P53671 (P53671 143-248): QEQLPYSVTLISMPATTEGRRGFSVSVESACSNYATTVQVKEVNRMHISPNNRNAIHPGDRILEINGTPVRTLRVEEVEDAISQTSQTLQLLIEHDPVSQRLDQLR
Chain of Inadl_8, Q8NI35 (Q8NI35 1425-1530): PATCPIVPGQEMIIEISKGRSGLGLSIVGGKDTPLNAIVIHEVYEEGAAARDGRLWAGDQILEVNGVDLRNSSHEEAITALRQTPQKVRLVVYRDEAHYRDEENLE
Chain of FRMPD3, Q5JV73 (Q5JV73 12-100): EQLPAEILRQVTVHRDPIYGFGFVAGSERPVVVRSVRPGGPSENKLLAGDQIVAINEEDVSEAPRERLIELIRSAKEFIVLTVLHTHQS
Chain of MAST2, Q6P0Q8 (Q6P0Q8 1099-1202): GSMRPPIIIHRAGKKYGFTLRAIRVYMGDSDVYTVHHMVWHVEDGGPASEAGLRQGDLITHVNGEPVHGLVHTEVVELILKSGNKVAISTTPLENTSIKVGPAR
Chain of Inadl_3, Q8NI35 (Q8NI35 359-469): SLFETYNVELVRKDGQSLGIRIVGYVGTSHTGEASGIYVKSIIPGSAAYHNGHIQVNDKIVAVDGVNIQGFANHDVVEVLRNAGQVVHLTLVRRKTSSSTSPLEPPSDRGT
Chain of GRASP, Q7Z6J2 (Q7Z6J2 96-193): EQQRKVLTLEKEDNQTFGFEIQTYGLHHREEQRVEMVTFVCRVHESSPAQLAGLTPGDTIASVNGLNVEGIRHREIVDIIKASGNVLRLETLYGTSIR
Chain of DLG4_1, P78352 (P78352 62-152): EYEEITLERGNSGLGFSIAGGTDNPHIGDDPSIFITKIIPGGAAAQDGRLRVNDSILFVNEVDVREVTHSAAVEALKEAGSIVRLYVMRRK
Chain of PTPN3, P26045 (P26045 505-587): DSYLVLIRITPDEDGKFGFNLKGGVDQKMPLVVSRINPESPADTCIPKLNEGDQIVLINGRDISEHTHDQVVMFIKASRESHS
Chain of DLG2_2, Q15700 (Q15700 189-283): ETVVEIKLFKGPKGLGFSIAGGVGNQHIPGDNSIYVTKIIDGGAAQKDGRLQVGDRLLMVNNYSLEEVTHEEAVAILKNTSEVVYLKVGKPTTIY
Chain of GRIP2_6, Q9C0E4 (Q9C0E4 648-740): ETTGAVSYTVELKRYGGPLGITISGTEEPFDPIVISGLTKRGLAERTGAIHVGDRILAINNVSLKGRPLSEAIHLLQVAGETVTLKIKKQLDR
Chain of NHERF4_1, Q86UT5-2 (Q86UT5 other isoform, or with tags, fused parts or gaps): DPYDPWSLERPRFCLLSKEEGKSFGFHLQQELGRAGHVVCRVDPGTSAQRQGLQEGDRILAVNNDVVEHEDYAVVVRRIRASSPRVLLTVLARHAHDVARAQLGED
Chain of GIPC2, Q8TF65 (Q8TF65 112-203): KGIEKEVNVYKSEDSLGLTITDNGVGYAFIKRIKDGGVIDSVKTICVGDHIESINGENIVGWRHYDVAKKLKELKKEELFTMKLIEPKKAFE
Chain of MAGI1_1, Q96QZ7 (Q96QZ7 1-106): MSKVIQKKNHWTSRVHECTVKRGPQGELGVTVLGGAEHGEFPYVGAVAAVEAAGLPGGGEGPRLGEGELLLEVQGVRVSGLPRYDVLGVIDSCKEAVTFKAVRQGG
Chain of ARHGEF12, Q9NZN5-2 (Q9NZN5 other isoform, or with tags, fused parts or gaps): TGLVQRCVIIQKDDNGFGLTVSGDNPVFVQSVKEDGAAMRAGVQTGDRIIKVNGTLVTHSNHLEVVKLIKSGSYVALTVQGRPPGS
Chain of MAGI2_5, Q86UL8 (Q86UL8 915-1017): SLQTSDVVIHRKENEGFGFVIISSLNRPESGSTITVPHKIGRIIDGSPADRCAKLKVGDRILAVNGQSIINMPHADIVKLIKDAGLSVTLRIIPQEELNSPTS
Chain of MAGI2_6, Q86UL8 (Q86UL8 1141-1229): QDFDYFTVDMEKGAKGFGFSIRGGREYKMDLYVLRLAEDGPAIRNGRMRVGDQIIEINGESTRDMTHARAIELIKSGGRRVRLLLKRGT
Chain of Inadl_10, Q8NI35 (Q8NI35 1673-1763): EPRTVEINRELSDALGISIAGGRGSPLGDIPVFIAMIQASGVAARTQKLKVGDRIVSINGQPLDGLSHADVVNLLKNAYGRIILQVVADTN
Chain of SCRIB_1, Q14160 (Q14160 718-814): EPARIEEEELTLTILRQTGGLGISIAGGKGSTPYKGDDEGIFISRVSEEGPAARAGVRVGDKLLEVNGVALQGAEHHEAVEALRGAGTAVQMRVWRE
Chain of LDB3, O75112 (O75112 1-94): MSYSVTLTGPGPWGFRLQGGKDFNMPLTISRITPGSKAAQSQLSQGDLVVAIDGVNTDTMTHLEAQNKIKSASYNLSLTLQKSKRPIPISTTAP

Binder | pKd (ARHGEF12, Q9NZN5-2) | pKd (ARHGAP21, Q5T5U3) | pKd (RADIL, Q96JH8) | pKd (MAGI2_5, Q86UL8) | pKd (DLG4_1, P78352) | pKd (PDZRN3_1, Q9UPQ7) | pKd (PARD3B_1, Q8TEW8) | pKd (PTPN3, P26045) | pKd (MAGI1_1, Q96QZ7) | pKd (GRIP2_6, Q9C0E4) | pKd (LIMK2, P53671) | pKd (Inadl_10, Q8NI35) | pKd (MAST2, Q6P0Q8) | pKd (Inadl_3, Q8NI35) | pKd (DLG2_2, Q15700) | pKd (LDB3, O75112) | pKd (SCRIB_1, Q14160) | pKd (FRMPD3, Q5JV73) | pKd (Inadl_8, Q8NI35) | pKd (NHERF4_1, Q86UT5-2) | further results
GEDRSPPTAL [MKNK1, Q9BUB5] | below the threshold | below the threshold | below the threshold | below the threshold | below the threshold | below the threshold | 3.63 | 4.06 | below the threshold | below the threshold | below the threshold | below the threshold | 4.85 | below the threshold | below the threshold | below the threshold | below the threshold | below the threshold | below the threshold | 4.34 | pKd (GIPC2, Q8TF65): below the threshold; pKd (SNX27, Q96L92): below the threshold; pKd (GRASP, Q7Z6J2): 4.62; pKd (LIN7A, O14910): below the threshold; pKd (MPP2, Q14168): below the threshold; pKd (CARD11, Q9BXL7): below the threshold; pKd (MAGI2_6, Q86UL8): 3.57; pKd (LNX2_3, Q8N448): below the threshold; pKd (FRMPD1, Q5SYB0): below the threshold
SVTSERETNI [SLC16A7, O60669] | 3.67 | below the threshold | below the threshold | below the threshold | below the threshold | 4 | below the threshold | 4.97 | below the threshold | below the threshold | below the threshold | below the threshold | 4.84 | below the threshold | 3.95 | below the threshold | 4.1 | below the threshold | below the threshold | below the threshold | pKd (GIPC2, Q8TF65): below the threshold; pKd (SNX27, Q96L92): 4.74; pKd (GRASP, Q7Z6J2): below the threshold; pKd (LIN7A, O14910): below the threshold; pKd (MPP2, Q14168): below the threshold; pKd (CARD11, Q9BXL7): below the threshold; pKd (MAGI2_6, Q86UL8): 3.5; pKd (LNX2_3, Q8N448): below the threshold; pKd (FRMPD1, Q5SYB0): below the threshold
GIKKITSTAL [RPS6KA3, P51812] | 5.58 | 3.93 | below the threshold | 3.95 | 3.76 | 4.36 | 4.05 | 5 | below the threshold | 3.88 | below the threshold | 3.66 | 5.88 | below the threshold | 3.88 | below the threshold | 4.94 | below the threshold | 3.62 | 4.76 | pKd (GIPC2, Q8TF65): below the threshold; pKd (SNX27, Q96L92): 4.93; pKd (GRASP, Q7Z6J2): 4.68; pKd (LIN7A, O14910): below the threshold; pKd (MPP2, Q14168): below the threshold; pKd (CARD11, Q9BXL7): below the threshold; pKd (MAGI2_6, Q86UL8): 4.08; pKd (LNX2_3, Q8N448): 3.49; pKd (FRMPD1, Q5SYB0): below the threshold
NNNVVKVDSV [MTNR1A, P48039] | below the threshold | below the threshold | below the threshold | below the threshold | below the threshold | below the threshold | below the threshold | below the threshold | below the threshold | below the threshold | below the threshold | below the threshold | below the threshold | below the threshold | below the threshold | below the threshold | below the threshold | below the threshold | 4.22 | 3.51 | pKd (GIPC2, Q8TF65): below the threshold; pKd (SNX27, Q96L92): below the threshold; pKd (GRASP, Q7Z6J2): below the threshold; pKd (LIN7A, O14910): below the threshold; pKd (MPP2, Q14168): below the threshold; pKd (CARD11, Q9BXL7): below the threshold; pKd (MAGI2_6, Q86UL8): below the threshold; pKd (LNX2_3, Q8N448): below the threshold; pKd (FRMPD1, Q5SYB0): below the threshold
